In one assay the target is T1, CHOK1-CD47 cells (Homo sapiens, UniProt Q08722).
T1 construct: expressed in transfected cells; host or cells: CHO-K1 (CHOK1-CD47, puromycin selection)
Put plainly: FACS binding of CD47 antibodies to CHOK1-CD47 cells. Particulars: Example 4.3. The procedure: The desired overexpressing cell line, CHOK1-CD47 (cultured in RPMI-1640 (ATCC Modification, Gibco, Cat# A10491-01) + 10% FBS (BI, Cat# 04-001-1A) + 1× P/S + 6 µg/ml Puromycin (Gibco, Cat# a1113803, 10 × 1 ml (10 mg/ml))), was expanded to the logarithmic phase. Cells were digested, collected, and pipetted to create a single-cell suspension, followed by centrifugation and removal of the supernatant. The cells were resuspended in FACS buffer (PBS + 2% FBS) and counted, and the cell density was adjusted to 2×10^6/ml. 100 µl/well of this suspension was added to a 96-well plate (Corning, Cat# 3799). […] After three washes with FACS buffer by centrifugation, the cells were resuspended in 200 µl/well of FACS buffer and analyzed using FACS (BECKMAN COULTER, CytoFLEX). Data were fitted and the results were analyzed using software (GraphPad Prism 8).
The desired overexpressing cell line, CHOK1-CD47 (cultured in RPMI-1640 (ATCC Modification, Gibco, Cat# A10491-01) + 10% FBSThe (BI, Cat# 04-001-1A) + 1× P/S + 6 µg/ml Puromycin (Gibco, Cat# A1113803, 10 × 1 ml (10 mg/ml))), was expanded to the logarithmic phase. […] After three washes with FACS buffer by centrifugation, the cells were resuspended in 200 µl/well of FACS buffer and analyzed using FACS (BECKMAN COULTER, CytoFLEX). Data were fitted and the results were analyzed using software (GraphPad Prism 8).

Another assay deals with Raji cells. Put plainly: FACS binding of CD47 antibody to Raji cells. As for the experimental part:
(§1) The required cell line, Raji (cultured in RPMI-1640 (ATCC Modification, Gibco, Cat# A10491-01) + 10% FBS (BI, Cat# 04-001-1A) + 1× P/S), was expanded to the logarithmic phase. Cells were collected and pipetted to create a single-cell suspension, followed by centrifugation and removal of the supernatant. The cells were resuspended in FACS buffer (PBS + 2% FBS) and counted, and the cell density was adjusted to 2×10^6/ml. 100 µl/well of this suspension was added to a 96-well plate (Corning, Cat# 3799). After centrifugation and removal of the supernatant, 100 µl/well of the antibody sample to be tested (initial concentration of 100 nM, 5-fold gradient dilutions) was added, mixed with the cells, and incubated at 4 °C for 1 hour. Cells were washed by centrifugation with FACS buffer for three times, then added with 100 µl/well of Goat anti-Human IgG Fc Secondary Antibody, PE (eBioscience™, Invitrogen, Cat# 12-4998-82, 1:200 dilution) and incubated at 4 °C for 1 hour. After three washes with FACS buffer by centrifugation, the cells were resuspended in 200 µl/well of FACS buffer and analyzed using FACS (BECKMAN COULTER, CytoFLEX). Data were fitted and the results were analyzed using software (GraphPad Prism 8).
(Flow cytometry measures light scatter and fluorescence of single cells or particles in a stream.)

For assay [1], the target named is T2, binding of CD47 on Raji cells to SIRPα (Homo sapiens, UniProt Q08722).
T2 construct: endogenous in cells; host or cells: Raji
The assay is described as follows: Blocking of SIRPα binding on Raji cells (FACS). Format: cell-based. The procedure:
as §1, with “tested (CD47 Antibodies at an initial” for “tested (initial”, “of 200” for “of 100”, “nM, with” for “nM,”, “gradient dilutions and 8 dilution points, mixed with an equal volume of Human SIRP alpha, mFc (DIMA Biotech, Cat# PME100531) at 16 µg/ml)” for “gradient dilutions)”, “Goat F(ab')2 Anti-Mouse IgG-Fc (PE), pre-adsorbed (abcam,” for “Goat anti-Human IgG Fc Secondary Antibody, PE (eBioscience™, Invitrogen,”, “Cat# ab98742,” for “Cat# 12-4998-82,”

T2 sequence (Q08722 19-323): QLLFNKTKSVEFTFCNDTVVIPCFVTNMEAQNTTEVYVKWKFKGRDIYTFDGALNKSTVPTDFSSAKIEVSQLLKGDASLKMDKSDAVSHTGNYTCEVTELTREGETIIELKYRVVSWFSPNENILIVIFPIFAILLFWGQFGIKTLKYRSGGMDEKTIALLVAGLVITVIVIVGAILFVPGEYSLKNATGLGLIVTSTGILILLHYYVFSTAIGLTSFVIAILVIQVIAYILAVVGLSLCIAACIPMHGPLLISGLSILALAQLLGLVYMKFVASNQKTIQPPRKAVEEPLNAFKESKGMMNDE
T1 sequence (Q08722 19-323): as above

B1: CD47 TMEAbody: CD47 TMEAbody conjugated with PEG of approximately 20K molecular weight (i.e., PEG20K) (conjugate)
VH: QQQLEESGGGLVKPEGSLTLTCTASGFSFSSGYDMCWVRQAPGRGLEWIACIYTRSSGGTCYASWAKGRFTISKTSSTVDLRMTSLTAADTATYFCAGGRSSYRLNLWGQGALVTVSS
VL: DVVMTQTPSPVEAAVGGTVTIKCQASQSISNELSWYQQKPGQPPKLLIYRASTLESGVSSRFKGSGSGTEFTLTISDLECADAATYYCQSTFYGDYGNAFGGGTEVVVK
Regarding B1, the “binding to cells lower compared to 70H1” value with CHOK1-CD47 cells was “approximately 20 fold”. Also, the “binding to Raji cells lower compared to 70H1” value in the assay on Raji cells is given as “approximately 60 fold”. The “activity in blocking the binding of CD47 on Raji cells to SIRPα” value in assay [1] (after the CD47 TMEAbody was activated) is on record as “restored”; in assay [1] (not activated), “significantly reduced”.
